Measured values taken from article PMC4409870.

Biological target: GST-tagged βI spectrin N-terminal fragment, residues 1 to 301 (UniProt P11277)
Assay: pull-down

UniProt P11277, sequence (P11277 1-301): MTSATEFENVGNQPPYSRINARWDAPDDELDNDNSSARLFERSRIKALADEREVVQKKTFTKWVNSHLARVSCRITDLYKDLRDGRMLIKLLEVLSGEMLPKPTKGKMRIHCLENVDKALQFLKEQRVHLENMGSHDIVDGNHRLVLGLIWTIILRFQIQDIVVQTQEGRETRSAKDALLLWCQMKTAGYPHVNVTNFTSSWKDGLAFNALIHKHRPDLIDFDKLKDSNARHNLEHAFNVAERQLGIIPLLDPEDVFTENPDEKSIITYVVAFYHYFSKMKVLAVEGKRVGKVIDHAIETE

Row | reduction of binding against the unphosphorylated protein | Substance
1 | 30% | His-tagged 4.1R-S312A, phosphorylated in vitro by the catalytic subunit of PKC (natural protein)
2 | 30% | His-tagged 4.1R-S331A, phosphorylated in vitro by the catalytic subunit of PKC (natural protein)
